Experimental findings from PMC6585157 are described below.

The target in the assay is Mycoplasma hyopneumoniae enolase (Mhp Eno, MHP168_271) (Mycoplasma hyopneumoniae). The experiment in a line: crystal structure.

The term stoichiometry N denotes a count of units in the complex or per binding partner.

On to “Mycoplasma hyopneumoniae enolase (Mhp Eno, MHP168_271) (enzyme)”, for which the stoichiometry N was determined as 8.
